Results taken from patent US20040077522A1 (published 2004).

B1: Haemophilus influenzae LuxS (enzyme)
chain: MPLLDSFKVDHTKMNAPAVRIAKTMLTPKGDNITVFDLRFCIPNKEILSPKGIHTLEHLFAGFMRDHLNGDSIEIIDISPMGCRTGFYMSLIGTPNEQKVSEAWLASMQDVLGVQDQASIPELNIYQCGSYTEHSLEDAHEIAKNVIARGIGVNKNEDLSLDNSLLKGSHHHHHH
modifications: selenomethionine in place of methionine (SeMet protein used for the crystals)
notes: Open reading frame amplified from H. influenzae ATCC 51907D genomic DNA and expressed in E. coli with 8 added C-terminal residues; Homodimer in the crystal (two molecules in the asymmetric unit); also called H. influenzae LuxS; Haemophilus influenzae wtLuxS
B2: Deinococcus radiodurans LuxS (enzyme)
chain: MPDMANVESFDLDHTKVKAPYVRLAGVKTTPKGDQISKYDLRFLQPNQGAIDPAAIHTLEHLLAGYMRDHLEGVVDVSPMGCRTGMYMAVIGEPDEQGVMKAFEAALKDTAGHDQPIPGVSELECGNYRDHDLAAARQHARDVLDQGLKVQETILLERGSHHHHHH
modifications: selenomethionine in place of methionine (SeMet protein used for the crystals)
notes: Open reading frame amplified from D. radiodurans ATCC 13939D genomic DNA and expressed in E. coli with 8 added C-terminal residues; The same protein gave several crystal forms: P21 has a non-crystallographic dimer in the asymmetric unit, and C2 has a crystallographic dimer; also called D. radiodurans LuxS; Deinococcus radiodurans wtLuxS
B3: Helicobacter pylori LuxS (enzyme)
chain: MKMNVESFNLDHTKVKAPYVRIADRKKGVNGDLIVKYDVRFKQPNRDHMDMPSLHSLEHLVAEIIRNHANYVVDWSPMGCQTGFYLTVLNHDNYTEILEVLEKTMQDVLKAKEVPASNEKQCGWAANHTLEGAQNLARAFLDKRAEWSEVGVGSHHHHHH
modifications: selenomethionine in place of methionine (SeMet protein used for the crystals)
notes: Open reading frame amplified from H. pylori ATCC 43504D genomic DNA and expressed in E. coli with 8 added C-terminal residues; Homodimer in the crystal (two molecules, A and B, in the asymmetric unit); also called H. pylori LuxS; Helicobacter pylori wtLuxS

Target: the molecule itself
Assay: X-ray crystal structure, homodimer interface

| Protein | surface area buried through the dimer interaction |
| --- | --- |
| B1 | 4160 Å^2 |
| B2 | 3930 Å^2 |
| B3 | 4180 Å^2 |
